B1: recombinant KLHL12^6xHis (natural protein, UniProt Q53G59 1-568, looked up)
chain: MGGIMAPKDIMTNTHAKSILNSMNSLRKSNTLCDVTLRVEQKDFPAHRIVLAACSDYFCAMFTSELSEKGKPYVDIQGLTASTMEILLDFVYTETVHVTVENVQELLPAACLLQLKGVKQACCEFLESQLDPSNCLGIRDFAETHNCVDLMQAAEVFSQKHFPEVVQHEEFILLSQGEVEKLIKCDEIQVDSEEPVFEAVINWVKHAKKEREESLPNLLQYVRMPLLTPRYITDVIDAEPFIRCSLQCRDLVDEAKKFHLRPELRSQMQGPRTRARLGANEVLLVVGGFGSQQSPIDVVEKYDPKTQEWSFLPSITRKRRYVASVSLHDRIYVIGGYDGRSRLSSVECLDYTADEDGVWYSVAPMNVRRGLAGATTLGDMIYVSGGFDGSRRHTSMERYDPNIDQWSMLGDMQTAREGAGLVVASGVIYCLGGYDGLNILNSVEKYDPHTGHWTNVTPMATKRSGAGVALLNDHIYVVGGFDGTAHLSSVEAYNIRTDSWTTVTSMTTPRCYVGATVLRGRLYAIAGYDGNSLLSSIECYDPIIDSWEVVTSMGTQRCDAGVCVLREK

One assay concerns the target recombinant CUL3/RBX1 (UniProt Q13618 1-768; P62877 1-108). Put plainly: pull-down.
In the assay “recombinant KLHL12^6xHis” the target is B1. Put plainly: pull-down.

recombinant CUL3/RBX1, sequence (Q13618 whole entry, chain 1 of 2): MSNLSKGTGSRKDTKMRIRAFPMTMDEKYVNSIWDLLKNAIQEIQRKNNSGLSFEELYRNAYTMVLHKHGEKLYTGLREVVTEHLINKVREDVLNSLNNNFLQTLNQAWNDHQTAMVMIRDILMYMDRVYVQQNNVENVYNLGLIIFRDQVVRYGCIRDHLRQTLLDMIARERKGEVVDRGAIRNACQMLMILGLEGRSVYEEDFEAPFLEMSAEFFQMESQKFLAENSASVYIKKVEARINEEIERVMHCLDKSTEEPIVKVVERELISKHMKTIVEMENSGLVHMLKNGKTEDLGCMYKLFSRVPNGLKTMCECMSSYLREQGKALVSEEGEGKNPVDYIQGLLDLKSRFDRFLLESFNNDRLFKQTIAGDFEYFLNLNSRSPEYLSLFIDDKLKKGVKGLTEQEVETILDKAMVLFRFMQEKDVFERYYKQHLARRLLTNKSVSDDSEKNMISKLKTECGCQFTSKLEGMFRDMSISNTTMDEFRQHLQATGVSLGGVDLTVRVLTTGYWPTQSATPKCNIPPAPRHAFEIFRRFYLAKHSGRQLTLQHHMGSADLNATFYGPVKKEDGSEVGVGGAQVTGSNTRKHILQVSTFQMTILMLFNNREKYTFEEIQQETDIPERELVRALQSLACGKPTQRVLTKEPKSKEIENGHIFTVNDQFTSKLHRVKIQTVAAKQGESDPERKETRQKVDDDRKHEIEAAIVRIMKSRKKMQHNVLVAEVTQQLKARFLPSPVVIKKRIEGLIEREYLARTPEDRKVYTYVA
recombinant CUL3/RBX1, sequence (P62877 whole entry, chain 2 of 2): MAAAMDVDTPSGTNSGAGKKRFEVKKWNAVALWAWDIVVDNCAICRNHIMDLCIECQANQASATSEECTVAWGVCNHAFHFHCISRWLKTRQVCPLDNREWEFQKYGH

For the molecule B1, in the assay with recombinant CUL3/RBX1, the binding result is reported as “binds”.

B2: recombinant PEF1 (natural protein, UniProt Q9UBV8 1-284, looked up)
chain: MASYPYRQGCPGAAGQAPGAPPGSYYPGPPNSGGQYGSGLPPGGGYGGPAPGGPYGPPAGGGPYGHPNPGMFPSGTPGGPYGGAAPGGPYGQPPPSSYGAQQPGLYGQGGAPPNVDPEAYSWFQSVDSDHSGYISMKELKQALVNCNWSSFNDETCLMMINMFDKTKSGRIDVYGFSALWKFIQQWKNLFQQYDRDRSGSISYTELQQALSQMGYNLSPQFTQLLVSRYCPRSANPAMQLDRFIQVCTQLQVLTEAFREKDTAVQGNIRLSFEDFVTMTASRML
As to B2, the binding result with recombinant KLHL12^6xHis was “binds”.
